Columns and labels:
[1] = biological target: T1, recombinant human phosphorylated Tau protein (80AWB) (human, UniProt P10636-8 1-441, limits assumed, phosphorylated; sites not stated); test: SPR Biacore, phosphorylated Tau protein immobilized
T1 construct: also called Protein Immobilized
Procedure: Antibody binding to immobilized, phosphorylated Tau protein was measured using Series S Sensor Chips NTA (GE Healthcare, BR100034). The running buffer for the immobilization was 10 mM HEPES, 150 mM […], 0.05% v/v Surfactant P20, pH 7.4 (GE Healthcare, BR100671) and the flow rate was 10 μL/minute. 350 mM EDTA was injected for 1 minute to clean the chip, followed by a 2 minute injection of 0.5 mM NiCl₂ (GE Healthcare, NTA Reagent Kit) to prepare the chip to capture his-tagged protein. The chip was activated according to the manufacturer's instructions using an amine coupling kit (GE Healthcare, BR100633), then 300 nM phosphorylated Tau protein (80AWB) was injected until the desired amount of protein had been immobilized. The chip was blocked with ethanolamine from the amine coupling kit. Each experiment used multiple levels of immobilized phosphorylated Tau protein. The lowest level varied from 54 resonance units (RU) to 452 RU, and the highest level varied from 463 RU to 1020 RU. […] Each concentration and several buffer blanks were injected for 3 minutes at a flowrate of […]. The dissociation of the antibody was monitored for 15 minutes, then the surface was regenerated with a 30 second to 1 minute injection of 100 mM CAPS (Sigma, C6070), 1 M KCl (Sigma, P9541), 1 mM EDTA, 2 mM DTT, pH 10.5. […]

[2] = biological target: T2, monophosphorylated tau peptide 1×P, TSPRHLSNVS(pS)TGSIDMVDSPC (human, phosphoserine (pS) at peptide position 11 (tau Ser413)); test: SPR Biacore, 1×P peptide immobilized
T2 construct: also called 1xP; 1×P peptide
T2 peptide: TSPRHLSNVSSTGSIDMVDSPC
Procedure: Antibody binding to immobilized, phosphorylated Tau peptide was measured using a Series S Sensor Chip CM3 (GE Healthcare, BR100536). The chip was activated using an amine coupling kit, then 30 μg/mL phosphorylated Tau peptide (SEQ ID NO:75) in 10 mM sodium acetate, pH 5.0 was injected until 51 RU had been immobilized. The chip was blocked with ethanolamine. A negative control reference surface was prepared similarly, using non-phosphorylated Tau peptide ([…], SEQ ID NO:77). […] Each concentration and several buffer blanks were injected for 3 minutes at a flowrate of 45 μL/minute. The dissociation of the antibody was monitored for 15 minutes. The surface was regenerated with a 30 second injection of 100 mM hydrochloric acid (Fisher Scientific, SA56-1, Waltham, Mass.).
The data were processed and fit using Biacore™ M T200 Evaluation Software version 2.0 or Biacore™ 4000 Evaluation Software version 1.1 (GE Healthcare). The data were “double referenced” by subtracting the response from a negative control flowcell and subtracting the response from a buffer injection or the average response from two buffer injections. The data were then fit with the “1:1 Binding” model to determine the association rate constant, kₐ (M⁻¹s⁻¹, where “M” equals molar and “s” equals seconds) and the dissociation rate constant, kd (s⁻¹). […]

T1 sequence (P10636 other isoform, or with tags, fused parts or gaps limits assumed): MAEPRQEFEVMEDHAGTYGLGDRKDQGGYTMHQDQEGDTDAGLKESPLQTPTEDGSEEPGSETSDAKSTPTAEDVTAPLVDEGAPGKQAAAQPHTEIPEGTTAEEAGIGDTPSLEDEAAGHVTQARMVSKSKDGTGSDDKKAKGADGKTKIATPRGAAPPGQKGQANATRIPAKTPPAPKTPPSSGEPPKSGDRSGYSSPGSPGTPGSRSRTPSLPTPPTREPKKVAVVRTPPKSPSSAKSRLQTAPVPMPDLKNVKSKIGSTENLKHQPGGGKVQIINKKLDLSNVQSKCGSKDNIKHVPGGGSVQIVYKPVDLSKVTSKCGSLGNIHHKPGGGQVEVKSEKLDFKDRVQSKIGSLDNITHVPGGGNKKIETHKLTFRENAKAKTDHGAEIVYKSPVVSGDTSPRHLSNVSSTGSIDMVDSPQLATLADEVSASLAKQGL

B1: Humanized × [MAPT_H] mAb (Ta1505-VL46_G34S/VH11) IgG4 S228P/Kappa (CX) (antibody, V domains shown)
VH: EVQLVESGGGLVQPGGSLRLSCAASGFTFSSFALNWVRQAPGKGLEWVGHIRSKTNNYATFYAASVKDRFTVSRDDSQNTAYLQMNSLKTEDTATYYCVRRGPRDSWFGYWGQGTLVTVSS
VL: DIVMTQSPLSLPVTLGEPASISCRSSQSIVHSNSNTYLEWYLQKPGQSPQLLIYTVSNRFSGVPDRFSGSGSGTDFTLKISRVEAEDLGVYYCFQGSHLPLTFGGGTKVEIKR
notes: also called hu VL46/VH11 G34S IgG4
**Q.** Does B1 bind [1]?
**A.** Result: no binding (tested: 0.37 nM to 30 nM antibody)

**Q.** Does B1 bind [2]?
**A.** Result: no binding (tested: 0.37 nM to 30 nM antibody)
